# Measurements as given in patent US20110166074A1.
# Legend:
# [1] = target: mannose 6-phosphate receptor (MPR) on cultured rat cerebellar granule neurons (rat) (UniProt P70580); assay: cell-based or functional assay
# [2] = target: Cy3-labeled Alzheimer's amyloid-beta fibrils
# UniProt P70580, sequence (P70580 whole entry): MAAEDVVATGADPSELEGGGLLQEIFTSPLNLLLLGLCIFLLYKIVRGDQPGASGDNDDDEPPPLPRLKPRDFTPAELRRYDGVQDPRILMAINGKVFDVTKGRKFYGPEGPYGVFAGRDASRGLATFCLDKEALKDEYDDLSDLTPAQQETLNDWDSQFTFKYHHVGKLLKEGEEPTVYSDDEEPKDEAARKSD
binder,measurement,setting,value
"recombinant human CLN2 protein produced in CHO cells (proCLN2, 65 KDa precursor) (protein) SYSPEPDQRRTLPPGWVSLGRADPEEELSLTFALRQQNVERLSELVQAVSDPSSPQYGKYLTLENVADLVRPSPLTLHTVQKWLLAAGAQKCHSVITQDFLTCWLSIRQAELLLPGAEFHHYVGGPTETHVVRSPHPYQLPQALAPHVDFVGGLHRFPPTSSLRQRPEPQVTGTVGLHLGVTPSVIRKRYNLTSQDVGSGTSNNSQACAQFLEQYFHDSDLAQFMRLFGGNFAHQASVARVVGQQGRGRAGIEASLDVQYLMSAGANISTWVYSSPGRHEGQEPFLQWLMLLSNESALPHVHTVSYGDDEDSLSSAYIQRVNTELMKAAARGLTLLFASGDSGAGCWSVSGRHQFRPTFPASSPYVTTVGGTSFQEPFLITNEIVDYISGGGFSNVFPRPSYQEEAVTKFLSSSPHLPPSSYFNASGRAYPDVAALSDGYWVVSNRVPIPWVSGTSASTPVFGGILSLINEHRILSGRPPLGFLNPRLYQQHGAGLFDVTRGCHESCLDEEVEGQGFCSGPGWDPVTGWGTPNFPALLKTLLNP",EC50 of M6P inhibitable uptake into rat cerebellar granule neurons (intracellular TPP1 activity),[1],6 to 8 nM
same,percent of Cy3-fAβ degraded in microglia at 12.5 nM CLN2 (against mannose-6-phosphate control),[2],insignificant (2%) degradation at 12.5 nM
same,percent of Cy3-fAβ degraded in microglia at 25 nM CLN2 (against mannose-6-phosphate control),[2],19% at 25 nM
same,percent of Cy3-fAβ degraded in microglia at 50 nM CLN2 (against mannose-6-phosphate control),[2],22% degradation at 50 nM CLN2
same,percent of Cy3-fAβ degraded in microglia at 100 nM CLN2 (against mannose-6-phosphate control),[2],-30% degradation of the Cy3-fAβ when 100 nM of CLN2 was added to microglia
